Data from the supplement of paper PMC10567573.

B1: ZNF232 (parent)
chain: HSGEKPFICKECGKAYGWCSELIR
B2: FCHO1 (parent)
chain: HLELTRKLQDLIKDVLRYGEEQLK

Variants of: B1
Test: protein stability index of a GFP-peptide fusion (GPS, HEK-293T) (PSI 1-6); higher = more stable
Settings: c terminus: a fixed tail appended
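Also: lentivirally expressed fusions sorted by FACS into six bins by GFP to DsRed ratio, PSI derived from sequencing read proportions per bin multiplied by bin number.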

First: HSGEKPFICKECGKAYGWCSELLR [I23L]
Second: HSGEKPFICKECGKAYGWCSELMR [I23M]
The protein stability index of the first is higher: 2.31 for the first, 1.97 for the second.

Compared with HSGEKPFICKECGKAYGWCSELPR [I23P], HSGEKPFICKECGKAYGWCSELYR [I23Y] is lower in protein stability index: 2.28 for the first, 1.82 for the second.

First: HSGEKPFICKECGKAYGWCSELWR [I23W]
Second: HSGEKPFICKECGKAYGWCSELTR [I23T]
The protein stability index of the first is higher: 2.3 for the first, 1.89 for the second.

First: HSGEKPFICKECGKAYGWCSELQR [I23Q]
Second: HSGEKPFICKECGKAYGWCSELKR [I23K]
The protein stability index of the first is higher: 2.58 for the first, 2.45 for the second.

Compared with HSGEKPFICKECGKAYGWCSELNR [I23N], HSGEKPFICKECGKAYGWCSELSR [I23S] is lower in protein stability index: 1.97 for the first, 1.78 for the second.

First: HSGEKPFICKECGKAYGWCSELRR [I23R]
Second: HSGEKPFICKECGKAYGWCSELVR [I23V]
The protein stability index of the first is higher: 2 for the first, 1.97 for the second.

Compared with HSGEKPFICKECGKAYGWCSELIV [R24V], HSGEKPFICKECGKAYGWCSELIM [R24M] is lower in protein stability index: 2.02 for the first, 1.74 for the second.

Compared with HSGEKPFICKECGKAYGWCSELIL [R24L], HSGEKPFICKECGKAYGWCSELIT [R24T] is higher in protein stability index: 1.71 for the first, 2.32 for the second.

Compared with HSGEKPFICKECGKAYGWCSELIP [R24P], HSGEKPFICKECGKAYGWCSELIA [R24A] is lower in protein stability index: 2.66 for the first, 1.86 for the second.

First: HSGEKPFICKECGKAYGWCSELIH [R24H]
Second: HSGEKPFICKECGKAYGWCSELII [R24I]
The protein stability index of the first is higher: 3.51 for the first, 1.99 for the second.

Compared with HSGEKPFICKECGKAYGWCSELIN [R24N], HSGEKPFICKECGKAYGWCSELIG [R24G] is lower in protein stability index: 2.03 for the first, 1.45 for the second.

First: HSGEKPFICKECGKAYGWCSELIW [R24W]
Second: HSGEKPFICKECGKAYGWCSELIC [R24C]
The protein stability index of the first is lower: 2.09 for the first, 4.05 for the second.

Compared with HSGEKPFICKECGKAYGWCSELIE [R24E], HSGEKPFICKECGKAYGWCSELIF [R24F] is lower in protein stability index: 2.33 for the first, 2.23 for the second.

Going from HSGEKPFICKECGKAYGWCSELID [R24D] to HSGEKPFICKECGKAYGWCSELIQ [R24Q], the protein stability index falls from 2.85 to 2.44.

Compared with HSGEKPFICKECGKAYGWCSELIS [R24S], HSGEKPFICKECGKAYGWCSELIY [R24Y] is lower in protein stability index: 2.23 for the first, 1.61 for the second.

In the case of HSGEKPFICKECGKAYGWCSELIK [R24K], the protein stability index is reported as 2.08.

Variants of: B2
Test: as above
Settings: c terminus: a fixed tail appended

Compared with HLELTRKLQDLIKDVLRYTEEQLK [G19T], HLELTRKLQDLIKDVLRYAEEQLK [G19A] is lower in protein stability index: 3.25 for the first, 2.5 for the second.

Going from HLELTRKLQDLIKDVLRYDEEQLK [G19D] to HLELTRKLQDLIKDVLRYFEEQLK [G19F], the protein stability index rises from 2.09 to 2.83.

First: HLELTRKLQDLIKDVLRYHEEQLK [G19H]
Second: HLELTRKLQDLIKDVLRYVEEQLK [G19V]
The protein stability index of the first is higher: 2.29 for the first, 2.02 for the second.

Compared with HLELTRKLQDLIKDVLRYYEEQLK [G19Y], HLELTRKLQDPIKDVLRYGEEQLK [L11P] is higher in protein stability index: 1.75 for the first, 4.34 for the second.

Going from HLELTRKLQDYIKDVLRYGEEQLK [L11Y] to HLELTRKLQDDIKDVLRYGEEQLK [L11D], the protein stability index rises from 1.09 to 4.29.

First: HLELTRKLQDAIKDVLRYGEEQLK [L11A]
Second: HLELTRKLQDLDKDVLRYGEEQLK [I12D]
The protein stability index of the first is lower: 2.5 for the first, 4.11 for the second.

First: HLELTRKLQDLMKDVLRYGEEQLK [I12M]
Second: HLELTRKLQDLLKDVLRYGEEQLK [I12L]
The protein stability index of the first is higher: 2.25 for the first, 1.77 for the second.

Compared with HLELTRKLQDLYKDVLRYGEEQLK [I12Y], HLELTRKLQDLKKDVLRYGEEQLK [I12K] is higher in protein stability index: 2.34 for the first, 3.17 for the second.

Going from HLELTRKLQDLAKDVLRYGEEQLK [I12A] to HLELTRKLQDLWKDVLRYGEEQLK [I12W], the protein stability index falls from 2.27 to 1.89.

Going from HLELTRKLQDLIKDVLRYGPEQLK [E20P] to HLELTRKLQDLIKDVLRYGTEQLK [E20T], the protein stability index falls from 2.51 to 1.74.

First: HLELKRKLQDLIKDVLRYGEEQLK [T5K]
Second: HLELDRKLQDLIKDVLRYGEEQLK [T5D]
The protein stability index of the first is higher: 5.01 for the first, 2.53 for the second.

Compared with HLELPRKLQDLIKDVLRYGEEQLK [T5P], HLELIRKLQDLIKDVLRYGEEQLK [T5I] is higher in protein stability index: 1.94 for the first, 2.38 for the second.

Compared with HLELMRKLQDLIKDVLRYGEEQLK [T5M], HLELCRKLQDLIKDVLRYGEEQLK [T5C] is lower in protein stability index: 3.28 for the first, 2.55 for the second.

Compared with HLELYRKLQDLIKDVLRYGEEQLK [T5Y], HLELERKLQDLIKDVLRYGEEQLK [T5E] is lower in protein stability index: 3.13 for the first, 1.88 for the second.

Compared with HLELWRKLQDLIKDVLRYGEEQLK [T5W], HLELNRKLQDLIKDVLRYGEEQLK [T5N] is higher in protein stability index: 2.05 for the first, 2.14 for the second.

Compared with HLELQRKLQDLIKDVLRYGEEQLK [T5Q], HLELARKLQDLIKDVLRYGEEQLK [T5A] is lower in protein stability index: 3.54 for the first, 1.89 for the second.

First: HLELTRKLQDLIKDRLRYGEEQLK [V15R]
Second: HLELTRKLQDLIKDELRYGEEQLK [V15E]
The protein stability index of the first is lower: 2.74 for the first, 3.18 for the second.

First: HLELTRKLQDLIKDNLRYGEEQLK [V15N]
Second: HLELTRKLQDLIKDQLRYGEEQLK [V15Q]
The protein stability index of the first is higher: 2.98 for the first, 2.49 for the second.

First: HLELTRKLQDLIKDPLRYGEEQLK [V15P]
Second: HLELTRKLQDLIKDMLRYGEEQLK [V15M]
The protein stability index of the first is lower: 2.27 for the first, 3.23 for the second.

First: HLELTRKLQDLIKDKLRYGEEQLK [V15K]
Second: HLELTRKLQDLIKDHLRYGEEQLK [V15H]
The protein stability index of the first is higher: 1.87 for the first, 1.83 for the second.

Going from HLELTRKLQDLIKDVLRYGEEGLK [Q22G] to HLELTRKLQDLIKDVLRYGEEPLK [Q22P], the protein stability index falls from 2.62 to 1.79.

First: HLELTRKLQDLIKDVLRYGEESLK [Q22S]
Second: HLELTRKLQDLIKDVLRYGEELLK [Q22L]
The protein stability index of the first is lower: 1.84 for the first, 2.14 for the second.

First: HLELTRKLQDLIKDVLRYGEEVLK [Q22V]
Second: HLELTRKLQDLIKDVLRYGEEFLK [Q22F]
The protein stability index of the first is higher: 2.32 for the first, 2.07 for the second.

Compared with HLELTRKLQDLIKDVLRYGEEQYK [L23Y], HLELTRKLQDLIKDVLRYGEEQHK [L23H] is lower in protein stability index: 2.29 for the first, 2.15 for the second.

First: HLELTRKLQDLIKDVLRYGEEQAK [L23A]
Second: HLELTRKLQDLIKDVLRYGEEQPK [L23P]
The protein stability index of the first is higher: 2.36 for the first, 1.73 for the second.

Going from HLELTRKLQDLIKDVLRYGEEQNK [L23N] to HLELTRKLQDLIKDVLRYGEEQIK [L23I], the protein stability index rises from 2.61 to 3.49.

First: HLELTRKLQDLIKDVLRYGEEQEK [L23E]
Second: HLELTRKLQDLIKDVLRYGEEQKK [L23K]
The protein stability index of the first is higher: 2.24 for the first, 2 for the second.

First: HLDLTRKLQDLIKDVLRYGEEQLK [E3D]
Second: HLPLTRKLQDLIKDVLRYGEEQLK [E3P]
The protein stability index of the first is higher: 2.84 for the first, 2.72 for the second.

First: HLMLTRKLQDLIKDVLRYGEEQLK [E3M]
Second: HLHLTRKLQDLIKDVLRYGEEQLK [E3H]
The protein stability index of the first is higher: 3.36 for the first, 3.08 for the second.

Compared with HLWLTRKLQDLIKDVLRYGEEQLK [E3W], HLELTRKLQDLIKDVLIYGEEQLK [R17I] is lower in protein stability index: 2.83 for the first, 1.54 for the second.

Compared with HLELTRKLQDLIKDVLLYGEEQLK [R17L], HLELTRKLQDLIKDVLDYGEEQLK [R17D] is lower in protein stability index: 2.88 for the first, 1.73 for the second.

Variant HLELTRKLQDLIKDVLHYGEEQLK [R17H] has a protein stability index of 3.28.
